# IntAct's records for PubMed 22885598
# B1: Autophagy-related protein 13 (Saccharomyces cerevisiae), Q06628 (parent)
# chain: MVAEEDIEKQVLQLIDSFFLKTTLLICSTESSRYQSSTENIFLFDDTWFEDHSELVSELPEIISKWSHYDGRKELPPLVVETYLDLRQLNSSHLVRLKDHEGHLWNVCKGTKKQEIVMERWLIELDNSSPTFKSYSEDETDVNELSKQLVLLFRYLLTLIQLLPTTELYQLLIKSYNGPQNEGSSNPITSTGPLVSIRTCVLDGSKPILSKGRIGLSKPIINTYSNALNESNLPAHLDQKKITPVWTKFGLLRVSVSYRRDWKFEINNTNDELFSARHASVSHNSQGPQNQPEQEGQSDQDIGKRQPQFQQQQQPQQQQQQQQQQQRQHQVQTQQQRQIPDRRSLSLSPCTRANSFEPQSWQKKVYPISRPVQPFKVGSIGSQSASRNPSNSSFFNQPPVHRPSMSSNYGPQMNIEGTSVGSTSKYSSSFGNIRRHSSVKTTENAEKVSKAVKSPLQPQESQEDLMDFVKLLEEKPDLTIKKTSGNNPPNINISDSLIRYQNLKPSNDLLSEDLSVSLSMDPNHTYHRGRSDSHSPLPSISPSMHYGSLNSRMSQGANASHLIARGGGNSSTSALNSRRNSLDKSSNKQGMSGLPPIFGGESTSYHHDNKIQKYNQLGVEEDDDDENDRLLNQMGNSATKFKSSISPRSIDSISSSFIKSRIPIRQPYHYSQPTTAPFQAQAKFHKPANKLIDNGNRSNSNNNNHNGNDAVGVMHNDEDDQDDDLVFFMSDMNLSKEG
# partner: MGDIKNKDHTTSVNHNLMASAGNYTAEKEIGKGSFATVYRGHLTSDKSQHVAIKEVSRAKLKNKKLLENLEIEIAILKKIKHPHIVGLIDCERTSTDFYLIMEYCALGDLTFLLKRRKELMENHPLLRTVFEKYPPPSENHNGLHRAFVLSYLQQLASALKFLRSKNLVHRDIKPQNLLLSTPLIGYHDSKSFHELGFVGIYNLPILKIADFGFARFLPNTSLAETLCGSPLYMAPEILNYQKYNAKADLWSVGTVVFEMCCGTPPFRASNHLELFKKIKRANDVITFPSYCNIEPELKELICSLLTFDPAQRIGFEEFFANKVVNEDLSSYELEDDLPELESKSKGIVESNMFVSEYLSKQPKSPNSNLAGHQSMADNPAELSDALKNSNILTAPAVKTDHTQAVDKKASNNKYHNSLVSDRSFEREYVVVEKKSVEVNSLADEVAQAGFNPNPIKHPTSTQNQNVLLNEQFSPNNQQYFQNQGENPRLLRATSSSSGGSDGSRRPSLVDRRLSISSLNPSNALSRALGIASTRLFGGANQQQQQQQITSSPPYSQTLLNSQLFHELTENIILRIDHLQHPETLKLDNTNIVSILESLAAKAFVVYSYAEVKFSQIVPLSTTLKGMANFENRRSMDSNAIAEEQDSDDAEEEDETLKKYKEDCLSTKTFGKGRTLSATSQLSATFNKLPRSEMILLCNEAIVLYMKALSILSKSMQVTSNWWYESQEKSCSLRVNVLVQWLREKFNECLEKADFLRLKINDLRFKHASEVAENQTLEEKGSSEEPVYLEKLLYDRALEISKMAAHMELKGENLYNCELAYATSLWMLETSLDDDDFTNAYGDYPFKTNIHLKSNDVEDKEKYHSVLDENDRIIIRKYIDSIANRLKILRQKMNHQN
# Variants of: B1
# Conditions: with atg1_yeast ATG1, P53104
row,effect of a mutation on the interaction,Variant
1,disrupting interaction,V469A
2,disrupting interaction,F468A

# Variants of: B1
# Conditions: with atg1_yeast ATG1, P53104
# Remark: another data set of the same source
row,effect of a mutation on the interaction,Variant
1,decreasing interaction,F468A
